Data reported in paper PMC12412624, “Engineered Cas12j‐8 is a Versatile Platform for Multiplexed Genome Modulation in Mammalian Cells”.
Numbering of substitutions follows the chain as printed.

Assays:
[1] = system: T1, dCas12j-8 D512R D512R;D369A;E567A;D658A (bacteriophage (metagenome)); details: HEK293T cells; panel 1c (compare within a panel only); scale: mean GFP / mean GFP of wild type, printed, no background subtraction
T1 sequence: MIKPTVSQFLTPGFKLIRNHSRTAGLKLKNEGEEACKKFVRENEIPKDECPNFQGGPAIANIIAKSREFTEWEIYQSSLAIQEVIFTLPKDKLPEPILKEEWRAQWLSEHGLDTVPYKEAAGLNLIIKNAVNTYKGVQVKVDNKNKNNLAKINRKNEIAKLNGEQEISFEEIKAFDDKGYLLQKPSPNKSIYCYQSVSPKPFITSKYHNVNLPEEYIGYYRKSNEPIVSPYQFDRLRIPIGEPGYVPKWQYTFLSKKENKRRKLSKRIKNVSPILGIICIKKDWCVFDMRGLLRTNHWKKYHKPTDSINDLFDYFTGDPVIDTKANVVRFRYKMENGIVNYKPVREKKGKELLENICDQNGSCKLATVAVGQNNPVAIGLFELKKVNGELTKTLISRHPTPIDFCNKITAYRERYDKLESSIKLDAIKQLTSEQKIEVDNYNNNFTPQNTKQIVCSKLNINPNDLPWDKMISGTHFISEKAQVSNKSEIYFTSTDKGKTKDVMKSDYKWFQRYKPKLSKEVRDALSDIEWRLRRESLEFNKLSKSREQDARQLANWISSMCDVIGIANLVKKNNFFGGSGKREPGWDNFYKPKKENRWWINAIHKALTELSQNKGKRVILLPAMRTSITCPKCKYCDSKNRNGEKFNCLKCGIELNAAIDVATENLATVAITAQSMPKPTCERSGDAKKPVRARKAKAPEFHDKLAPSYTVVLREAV

[2] = system: T2, dCas12j-8 E258R+D313R+E547R E258R;D313R;E547R;D369A;E567A;D658A (bacteriophage (metagenome)); details: HEK293T cells; panel 1e (compare within a panel only); scale: mean GFP / mean GFP of wild type, printed, no background subtraction
T2 sequence: T1 sequence with E258R, D313R, R512D, E547R

[3] = system: T3, dCas12j-8 E258R+D313R+D495R E258R;D313R;D495R;D369A;E567A;D658A (bacteriophage (metagenome)); details: HEK293T cells; panel 1e (compare within a panel only); scale: mean GFP / mean GFP of wild type, printed, no background subtraction
T3 sequence: T1 sequence with E258R, D313R, D495R, R512D

[4] = system: T4, dCas12j-8 E258R+D313R+D495R+D527R E258R;D313R;D495R;D527R;D369A;E567A;D658A (bacteriophage (metagenome)); details: HEK293T cells; panel 1e (compare within a panel only); scale: mean GFP / mean GFP of wild type, printed, no background subtraction
T4 sequence: T1 sequence with E258R, D313R, D495R, R512D, D527R

“CUUUCAAGACUAAUAGAUUGCUCCUUACGAGGAGACACUCCCUAUCAGUGAUAGAG / TTNACTCCCTATCAGTGATAGAG / CTCTATCACTGATAGGGAGTNAA [TetO]” gave a binding signal [1] of 1.07, a binding signal [2] of 3.99 and a binding signal [3] of 4.66. The binding signal [4] was 5.3.
